Data set [1] can be described thus: Example 8: screening of glucosidase variants for deglycosylation of saponins in crude bark extract (FIOP). It is filed as biochemical, Quillaja saponaria. The following applies: for Cumulative FIOP (cf WT): estimate; for FIOP: fold improvement over parent. As for the experimental part:
Libraries of genetic variants encoding mutations in the wild type Modestobacter marinus glucosidase (SEQ ID No. 262) were prepared using molecular biology techniques, enzymes were prepared linked to an N-terminally located His-tag. Single monoclonal colonies were grown in 400 ul of expression medium and protein expressed. Cell pellets were lysed in 200 ul of the relevant buffer (Table 16)
Lysate was diluted appropriately in the relevant buffer to allow a lysate loading of the indicated % loading (1% loading corresponds to use of 2 ul original lysate in a 200 ul reaction). In some experiments a rhamnosidase was also present during the screening reaction (and also in controls, negating any impact on results).
Crude bark extract (CBE) obtained by aqueous extraction of Quillaja saponaria and containing at least 2.80 mg/ml QS-21 (by HPLC-UV). The pH of CBE was adjusted to pH 6 by dropwise addition of 2M NaOH with stirring. The relevant concentration of the relevant glucosidase was added. The appropriate relative volume of pH 6 CBE (160 ul (for 80%) or 150 ul (for 75%)) was added to each well of the reaction plate. The reaction plate was sealed and incubated at the relevant temperature with shaking overnight for between 18 and 22 hours.
The reaction plate was quenched by adding 200 uL of MeCN (2% AcOH, 1 mg/mL hexanophenone) to each well of the plates. The quenched reaction plate was re-sealed and incubated at 20 deg C. with shaking for 10 min. The reaction plate was then centrifuged (10 min, 4 degC).
200 uL was transferred from each well of the quenched plate to the corresponding wells of a fresh 96 well plate and sealed. The plate was analysed by UV HPLC with the method below:
A negative control (a lysate not expressing test enzymes) and a positive control (expressing the parent comparator—wild type or previous variant as appropriate). Fold improvement over parent (FIOP) for the glucosidase (shorter method) is calculated as follows:
% right peak=100*right peak area/(right peak area+left peak area)
Average % right peak area is calculated for negative controls (per plate) and subtracted from all wells to give the increase in % right peak for each well above average negative control Average increase in % right peak is calculated for positive controls per plate
FIOP=observed increase in % right peak divided by average positive control increase

Data set [2] can be described thus: Example 10: deglucosylation of saponins in crude bark extract (50%) using WT and engineered glucosidases G1 to G5. The data set is classed as biochemical, Quillaja saponaria. The following applies: 50% CBE, 35 degC; for % Right Peak: starting CBE 26; for % Left Peak: starting CBE 30; for % Middle Peak: starting CBE 44. As for the experimental part:
Lyophilised powders from clarified cell lysate expressing glucosidases (from Example 8 WT glucosidase and engineered glucosidase polypeptides G1 to G5) and rhamnosidases (from Example 9 WT rhamnosidase and engineered rhamnosidase polypeptides R1 to R5) were dissolved in 200 mM sodium acetate aqueous solution at pH 5.8 to prepare the enzyme solutions at 4 fold the final reaction concentration as shown in Tables 19 and 20.
Each glucosidase solution was combined with an equal volume of 200 mM sodium acetate aqueous solution at pH 5.8 and separately with an equal volume of 200 mM sodium acetate aqueous solution at pH 5.8 containing 2 mg/ml rhamnosidase R5. This is a sufficient loading of rhamnosidase to effect complete hydrolysis of the relevant rhamnose moiety within 4 hours.
CBE was adjusted to pH of 6.0 to 6.2 with 2M sodium hydroxide and an equal volume added to the enzyme solution to prepare the reaction mix (i.e. 50% CBE concentration in reaction mix) and the concentration of glucosidase and/or rhamnosidase is shown in Tables 19 and 20. The reaction mix was heated to 35 degC for the time indicated in Tables 19 and 20, after which the reaction was quenched by addition of an equal volume of MeCN containing 2% acetic acid and shaken at room temperature for 10 mins prior to centrifugation (10 min, 4 degC) to remove particulates. Samples were analysed by UV HPLC using method of Experiment 4-4.
The change in composition of the Left, Middle and Right peaks is shown in Tables 19 and 20. The composition changes by the action of the enzymes depending on the presence or absence of the partner enzyme. The extent of reaction is proportional to the enzyme concentration and the reaction time under these conditions. The tables show data for enzyme concentrations and the reaction times providing for equivalent extents of reaction. The improvement resulting from the mutations introduced for each variant is equal to the fold change in enzyme concentration×time (i.e. fold improvement=(enzyme concentration×time) for preceding variant÷(enzyme concentration×time) for later variant). A cumulative fold improvement over the original enzyme variant is calculated by the product of the individual fold improvements.

[3] abbreviates: screen temp 35, pH 6, lysate loading 0.14%, CBE loading 75%, 100 mM Sodium acetate, Rham Present.
The mark [4] stands for this setting: glucosidase 0.1 mg/ml + rhamnosidase R5 0.5 mg/ml, 4 h.
Where [5] appears, read: glucosidase 0.1 mg/ml, no rhamnosidase, 4 h.
Where [6] appears, read: screen temp 20, pH 6, lysate loading 10%, CBE loading 80%, 100 mM Potassium phosphate, Rham None.
The mark [7] stands for this setting: glucosidase 1.56 mg/ml + rhamnosidase R5 0.5 mg/ml, 7 h.
Where [8] appears, read: glucosidase 1.56 mg/ml, no rhamnosidase, 7 h.

Changes are numbered by the printed parent chain. In names and notes the source's numbering stands.

B1: Variant G5: engineered glucosidase polypeptide, variant of Modestobacter marinus glucosidase SEQ ID No. 262 (protein)
chain: MNPASSTRTDTMTDTTARTDSRLTDALAALSLEQKVQLLTGRDYWNTWPIEEIGLRRILVSDGPSGVRGEVWDERDPSLNLPSATALASAWDPDIARRYGAAAAVEARRKGVDVVLGPTINLHRSPLGGRHFEAFSEDPVLTAELAAAYVTGVQDNGVGATPKHYVANDFETDRFTVDVRADERTLRELYLLAFEKAVTEARAWLVMSAYNGINGATATENDLLETPLNSEWGFDGVVVSDWTAVRSLESARSSQDLVMPGPLGPWGDALVEAVRTGAIDESVVDRKVLRILTLAQRVGALEGSPAIDPVWVEDGVALAREAAVEGTVLLENRDELPWDATSLRKVAVIGNNAAWAMTQGGGSANVCPEYTVSPLDGVRAALPDAEVSYSLGAVVRDGLVELPLAELTNPVTGGPGLRARFLTADGAELFGEDRRKSVLVYQGGDAPIAAAATYELTARWTPTESQTVRLGFACFGAAQLYVDGELLVESDLQPSGTDLGAAFMNPLTASAEVELVAGKPVDVRLVHDLSAKEGFAAHALILQLGTEPAEVDEDALIAEAAEAAEAADVVLVVVGTNSIVESEGYDRESLSLPGRQDDLVRAVVAANPRTVVLVNAGAPVLLPWRDDVAALLLGWFGGQEFGNAVADVLLGVAEPGGRLPTTWPAAEADVPVLSCTPVDGVVEYTEGIHIGYRAWLRSGATPAYWFGSGQGYTCVELTGVEAPSRARPGEIVTVSVEVANRGERDGKQVVQVYAEKPDSTVDRPVRWLVGSAPVRVPAGQTAQVEVAVPTRYLAHWAGGWQYEPGVYRLRVGTTAVELPLETTLEVSA
modifications: Seq ID No. 262 with mutations F44Y, V263L, R357M, T365N, F442Q, L474C, I475F, F541I, A355W, L367C, Q396R
As for B1, in data set [1] (setting [3]), the “Cumulative FIOP (cf WT)” value is given as 900 and the FIOP is 3. For the same molecule, the “time to complete hydrolysis of the relevant glucose moiety” value in data set [2] (2 mg/ml glucosidase G5 solution (before mixing with rhamnosidase solution and CBE)) is no more than 4 h. Further, in data set [2] (from enzyme concentration x time for equivalent extent of reaction), the “cumulative fold improvement over WT glucosidase” value was “approximately 800 fold”. Also, in data set [2] (setting [4]), the “% change in Left Peak” value was −34%, the “% change in Middle Peak” value is on record as −83%, the “% change in Right Peak” value was found to be 280% and the “Cumulative Fold improvement in primary enzyme loading × time” value is reported as 834. Also, in data set [2] (setting [4]), the “Fold improvement in primary enzyme loading × time” value is recorded as 6.5, the “% Right Peak” value is on record as 73%, the “% Left Peak” value is listed as 20% and the “% Middle Peak” value is 7%. Besides, in data set [2] (setting [5]), the “% change in Left Peak” value is −11%, the “% change in Middle Peak” value is −56%, the “% change in Right Peak” value was found to be 208% and the “Cumulative Fold improvement in primary enzyme loading × time” value was 834. For the same molecule, in data set [2] (setting [5]), the “Fold improvement in primary enzyme loading × time” value is on record as 6.5, the “% Right Peak” value is recorded as 54%, the “% Left Peak” value turned out to be 27% and the “% Middle Peak” value is 19%.

B2: Variant G2: engineered glucosidase polypeptide, variant of Modestobacter marinus glucosidase SEQ ID No. 262 (protein)
chain: B1 chain with Y44F, L263V, W355A, C367L, R396Q, Q442F, A473F, I541F
modifications: Seq ID No. 262 with mutations T365N, R357M, A473F, L474C, I475F
For the molecule B2, in data set [1] (setting [6]), the “Cumulative FIOP (cf WT)” value is reported as 50 and the FIOP came to 10. Moreover, in data set [2] (setting [7]), the “% change in Left Peak” value is recorded as −26%, the “% change in Middle Peak” value is listed as −82%, the “% change in Right Peak” value was 269% and the “Cumulative Fold improvement in primary enzyme loading × time” value turned out to be 32. Besides, in data set [2] (setting [7]), the “Fold improvement in primary enzyme loading × time” value stood at 4.0, the “% Right Peak” value stood at 70%, the “% Left Peak” value was 22% and the “% Middle Peak” value came out at 8%. For the same molecule, in data set [2] (setting [8]), the “% change in Left Peak” value is −15%, the “% change in Middle Peak” value is recorded as −57%, the “% change in Right Peak” value was determined as 213% and the “Cumulative Fold improvement in primary enzyme loading × time” value is 32. Besides, in data set [2] (setting [8]), the “Fold improvement in primary enzyme loading × time” value was found to be 4.0, the “% Right Peak” value is 55%, the “% Left Peak” value stood at 26% and the “% Middle Peak” value was 19%.

Source of the values: patent US20240026407A1, “MODIFICATION OF SAPONINS” (GLAXOSMITHKLINE BIOLOGICALS SA, priority 2020, published 2024).
